In the supplement of paper PMC12042874:
± gives the uncertainty stated by the source.

Assay: amyloid nucleation score (Sup35N fusion, yeast selection) (log enrichment); library NNK1; higher = more nucleation; inactive = no reads after selection
Outline: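 Nucleation score: DiMSum log enrichment of output over input reads, centred on the mode score of non-aggregating sequences. Only sequences with at least 100 input reads were kept. Reads came from Illumina sequencing of plasmid inserts before and after 7 days of growth at 30°C without adenine and uracil, in psi-negative yeast expressing Sup35N fused to peptides of 20 random codons after 24 hours of induction with 100 μM copper sulfate.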

Substance | amyloid nucleation score
LFADYILCTCAGCGTGAWEM | -0.092 ± 1.1
LFALNCDCM | 7.448 ± 0.053
LFATYLAFKFY | -0.356 ± 1
LFDARDSRFSCRYVMRRVWV | 0.195 ± 0.25
LFEGEIIMK | inactive
LFFGSTLMDATFGYGDSDCN | 0.828 ± 0.62
LFGEFRNEINAI | 0.031 ± 0.31
LFHQLRITSVLSYDDKCEAR | 0.41 ± 0.2
LFIRGMIDDKVSITNYVC | -0.546 ± 0.31
LFLCGGDCYGKFLLCPCLVS | 0.144 ± 0.9
LFNLFSRL | 0.335 ± 0.51
LFSNPFRQAWH | -0.445 ± 0.71
LFSPMSILRFLFMYIAKVMD | 0.213 ± 0.58
LFTKNSIGGVFPCPPETARY | -1.18 ± 2.4
LFTNMYSRVLTFLM | -0.441 ± 1.7
LFTSVYL | -0.173 ± 0.53
LFYTCRVDQGPVWGLLTKRR | 0.344 ± 0.77
LGFMTCSP | inactive
LGGSDYVYANSFTTIGSSGV | -0.202 ± 0.21
LGHGGVR | 0.566 ± 0.28
LGLFCESYDEADCRTEDSAC | 0.254 ± 0.3
LGMCFENSPVNLFWAIDSQM | 1.95 ± 0.37
LGNNPTKHC | -0.171 ± 0.51
LGRSGKMTT | -0.032 ± 0.54
LGSAAISLIVLFLG | 2.64 ± 0.27

Substance | amyloid nucleation score
LGSMSTWVDRLRVANQVVVC | 0.785 ± 0.77
LGTMSVYRRPRSMMGCRDQG | 0.173 ± 0.26
LGVKFVQDGTINKGHLKR | -0.543 ± 0.63
LHETFVCR | -0.267 ± 0.58
LHGPN | 0.705 ± 0.71
LHLAAMM | -0.344 ± 1.1
LHLNSCSQNITSLHYLPFWA | -0.113 ± 0.39
LHRALYLDRQLISWGTVSQM | -0.332 ± 0.42
LICVGCSCYSLKLSYNSSGL | 5.79 ± 0.058
LIEVWYVLIQGECDPWVTHG | 1.07 ± 0.97
LIIILVQQSEGACRILARD | 0.028 ± 0.34
LILKYAVGRRQARVVKRNSR | -0.575 ± 1.4
LIRHVLNLVL | -0.139 ± 0.77
LISGKYLYSPTALLDHIL | 0.484 ± 0.68
LITWCIVVAWCIIVTREA | 2.84 ± 0.12
LIWAVLCVKHTKEYVWLAHL | -0.469 ± 0.54
LIYAREDGEALWEAIRPTEK | -0.047 ± 0.48
LKLLFVTLKMLASMFFRGS | -1.28 ± 0.77
LKNSVSFMADGS | -0.327 ± 0.38
LKSDMIADTTAL | 2.67 ± 0.12
LKSPTWPMSHSDRLTHRLLC | 0.004 ± 0.69
LKTEPHIRLSPLETRPV | 0.552 ± 0.77
LKWGMVLGAYIHEFGCNM | 0.804 ± 0.61
LKWRV | -0.771 ± 1.1
LLAEASLVKETTLCYHSPSL | 0.04 ± 0.56

Substance | amyloid nucleation score
LLCDWDGQ | 0.497 ± 0.43
LLCICWLALICCLNSELGSQ | -0.675 ± 1
LLCWRYFSCSYFLECVGSTS | -1.14 ± 0.86
LLFCRFRSWDRDHRWCRCD | 1.95 ± 0.66
LLFFGYYAFDHICYAEYLSC | 2.71 ± 0.14
LLFGTHVPIRRGRFDASMIY | 0.58 ± 0.5
LLKRRTREIAALYRHSSNGY | 1.26 ± 0.57
LLKSKRL | 0.563 ± 0.43
LLLDTLVCVVKHTNTCFSKW | 0.503 ± 0.26
LLLLIN | -0.663 ± 1.7
LLMGFGGAFSVNTADPRLLV | -0.752 ± 0.65
LLMLGLLSQH | 0.427 ± 0.28
LLMYSKWAFTDYGT | -0.147 ± 0.74
LLNSFPSNCQVKDMELQGME | -0.176 ± 0.93
LLNYGLRFCLVTARSELTYM | 0.979 ± 0.62
LLPWGYD | 2.77 ± 0.15
LLRNGFHSVLI | 0.488 ± 0.25
LLRSILTMAY | 0.605 ± 0.43
LLSCSYMKIVFI | 1.47 ± 0.16
LLSYFLRNPYMSNGTTGLHG | 0.144 ± 0.79
LLVNGLMGMWPIFII | -1.03 ± 2.4
LLVRHEEKG | 0.263 ± 0.42
LMGDLYGSLRMCLVGSRWLL | 0.082 ± 1.2
LMHKDISERDRSCLWL | 0.033 ± 0.5
LMLGCGCECHVSSVSQKENM | 0.301 ± 1.1

Substance | amyloid nucleation score
LMLPMESAPKRLGEGVGPSR | 0.233 ± 0.47
LMSEVRPAMLDSSVLRDCYD | inactive
LMTRSVIVIRLMEEKSAA | 0.163 ± 1.4
LMVNYRLRLYFFVLDSCDGE | -0.348 ± 0.28
LMYWLLLMEIRYNLKPLNRL | 2.29 ± 0.084
LNAKFIVKW | 0.588 ± 0.21
LNHCVNMLRGRCGVPLLSVV | 0.551 ± 1.1
LNHIRRTVR | 1.23 ± 0.53
LNHNIFVFFLQIIQTHDIWF | 4.87 ± 0.09
LNKVWFSWSRDKVRYTGMLV | -0.857 ± 0.48
LNLGGSF | inactive
LNLHS | -0.384 ± 1.2
LNLTMVGIYINDFL | 4.69 ± 0.099
LNPLVLSCSGEIDSMFNV | 1.11 ± 0.34
LNQPWYIRIQANIDFNR | 4.47 ± 0.079
LNRFVPASRWDHLHL | -0.353 ± 1.7
LNRRMNRCCTWLNMCADFFA | 0.865 ± 0.75
LNTWVGVGGWPE | -0.135 ± 0.78
LNYLYDIMLSSLTSQTDSMS | -0.689 ± 0.66
LPCMGKLIYVCRSRLEREQS | 0.498 ± 0.62
LPDVKCVLLLMLHLEASRSA | -0.21 ± 0.58
LPFLS | -0.116 ± 0.68
LPGYVGQ | 0.472 ± 0.78
LPKMWYIDLFVSGVY | 0.241 ± 0.48
LPMLLFAHITFNMLNDVSPN | 5.94 ± 0.086

Substance | amyloid nucleation score
LPTHHCGLNVSSDGSNSELR | 0.068 ± 0.46
LPTVDMIWIRGFGFQELSWC | inactive
LPVLLSFVSYGS | -0.162 ± 0.34
LPWPRNRFCTLIDEIHTPVY | -0.167 ± 0.57
LQAKMTIGAFFISYSSMYPG | 2.74 ± 0.08
LQEVSWYSTVALTLSNLKWG | -0.389 ± 0.46
LQFGWFMIYLIKFSPNLRGN | -1.18 ± 1.7
LQSYWRYRVKRFV | -0.39 ± 0.39
LQVKNVYGACFVCAMMVAWE | 5.18 ± 0.09
LRAIRE | 0.33 ± 0.63
LRCLYIG | -0.818 ± 0.86
LRCYEDLFVGLAHGRMRYTG | -0.561 ± 1.7
LRDISEH | -0.588 ± 0.53
LREFLPLSNTVVGFTLDSYV | -0.526 ± 0.9
LRFRFSLANAEGLMLPVRHK | -0.216 ± 0.48
LRFVTINRRSVSVYSSNTKS | inactive
LRGFESTRETVLGSMQQWCL | 1.03 ± 0.56
LRGVLMFMQVRDRADRGRSW | 0.061 ± 0.47
LRGVPLYFDGRHMWYAFSRY | -0.424 ± 0.47
LRIPFTSWRYDNEMAVTGSG | 0.394 ± 0.84
LRKDGSGK | 1.06 ± 0.21
LRKSWVQSKHCDIRPDSKAL | 0.693 ± 0.68
LRRIKCYTFMIAGSILVVGT | inactive
LRTDALFY | 0.577 ± 0.69
LRVAFIKLKHKKFNDMYRSM | 0.156 ± 0.26

Substance | amyloid nucleation score
LRVTSFMIMQLDLECPRCQI | -0.007 ± 0.46
LRWLSRKILLTVRASN | -0.125 ± 0.33
LRYVKSHSTMAFKLGATPGT | 0.505 ± 0.66
LSCIVW | -0.366 ± 0.57
LSGFLSYYLCKPKA | -0.887 ± 0.38
LSGGPSGLINAFLYPSPNKW | 0.07 ± 0.81
LSGTTLIPEYILRSSNPSI | 0.147 ± 1.6
LSGWHSNLAGRPFPNEMDDG | 0.284 ± 0.3
LSIFMTITAVESPWVTETVF | -0.803 ± 0.4
LSIFVF | 1.75 ± 0.25
LSLSYPYFTFAHSVEMRESI | 9.039 ± 0.053
LSMWSRHSMTPRFFLGLTPV | 0.766 ± 0.69
LSNSSEVPHNSVNINDFVWD | inactive
LSPHLPSESLGLGPMS | -0.921 ± 1.4
LSPRSSA | -0.322 ± 0.65
LSQIWIKSPGFAKDFTPILC | 0.045 ± 0.36
LSTNDTSR | -0.028 ± 0.53
LSTVRLFILEPLYGGPPRNG | -1.4 ± 1.4
LSTYAGCRNAWPELQ | -0.52 ± 0.4
LSVRDVLYGHVRWVGWGGVK | 0.886 ± 0.64
LSVVSWICRFDALQGHSCVK | -0.561 ± 0.41
LSWFMGLSYIKILYYCHIYD | -0.142 ± 1.1
LSWVVVVSNKYGQTMTCVVI | -0.326 ± 0.5
LSYLGLLP | 0.373 ± 0.62
LTISRSYRPKWFSVSTGLDS | 0.437 ± 1.4

Substance | amyloid nucleation score
LTNFNAWR | 0.098 ± 0.47
LTPNVFAL | -0.345 ± 0.3
LTRSRGVSRLYIVRGVTDVW | 0.076 ± 0.43
LTSQSLVVNFLLYCTG | 1.1 ± 0.85
LTSWLDYDDISEWHRSDGFR | 0.987 ± 0.57
LTTQIVIFFCWVCKDINCCK | 4.88 ± 0.081
LTWLL | 0.992 ± 0.97
LVAATP | 0.898 ± 0.66
LVCRYFRNRWMPSTRWGVHS | 0.711 ± 0.85
LVCVGTGSGMFEHRAIMMLV | -0.174 ± 0.51
LVDWVYGWGVVVFAMSQGSE | 0.125 ± 1.4
LVFGILHGCFEVVSGMLRVD | -0.801 ± 0.65
LVFVSFIW | 0.942 ± 0.17
LVGRRGYFSLVWVPGMSFMR | 0.289 ± 0.45
LVHKLFDIRRCPTAFSNWTM | 1.29 ± 0.47
LVHPSWN | -0.311 ± 0.77
LVIPVDRDANGLCYR | 0.46 ± 0.6
LVLCSFYYDKAWSPESCLME | -0.258 ± 0.62
LVLSSPRHDMSCSYAHFNMN | 1.38 ± 0.43
LVLVWVAIHFDRLRIHRFFI | inactive
LVMSTRLQTCCWLNVNVGWV | 6.04 ± 0.069
LVNVCFRWNLKCYYQSSEYA | 0.518 ± 0.32
LVNWYTQILICTCPGHKLRR | 8.156 ± 0.053
LVPVIKEQFCCHVWVMV | inactive
